Laboratory results published in paper PMC5596348.

Experiments:
[1] = target: streptolysin O (Streptococcus pyogenes (group A Streptococcus), strain 854) (UniProt P0C0I3); assay: BLI; […] (Octet RED384), […]; 20 mM Tris, 300 mM NaCl, 0.01% Tween 20, 1 mM DTT, pH 7.4; 30°C; […]
[2] = target: streptolysin O (Streptococcus pyogenes (group A Streptococcus), strain 854) (UniProt P0C0I3); assay: […]; PBS, 1 mM DTT, pH 7.4; room temperature
[3] = target: streptolysin O (Streptococcus pyogenes (group A Streptococcus), strain 854) (UniProt P0C0I3); assay: […], room temperature; […], pH 7.4; […]

190NADase, C-terminal glycohydrolase (catalytic) domain of NADase (domain or fragment)
Kd [1]: 20.7 µM

NAD+-glycohydrolase, full-length (enzyme)
Kd [1]: 2.58 µM
stoichiometry N [2]: 1
stoichiometry N [3]: 1
